From IntAct's records for PubMed 8940095

Target: pdli5_rat Pdlim5 (UniProt Q62920)
Sequence (Q62920 whole entry): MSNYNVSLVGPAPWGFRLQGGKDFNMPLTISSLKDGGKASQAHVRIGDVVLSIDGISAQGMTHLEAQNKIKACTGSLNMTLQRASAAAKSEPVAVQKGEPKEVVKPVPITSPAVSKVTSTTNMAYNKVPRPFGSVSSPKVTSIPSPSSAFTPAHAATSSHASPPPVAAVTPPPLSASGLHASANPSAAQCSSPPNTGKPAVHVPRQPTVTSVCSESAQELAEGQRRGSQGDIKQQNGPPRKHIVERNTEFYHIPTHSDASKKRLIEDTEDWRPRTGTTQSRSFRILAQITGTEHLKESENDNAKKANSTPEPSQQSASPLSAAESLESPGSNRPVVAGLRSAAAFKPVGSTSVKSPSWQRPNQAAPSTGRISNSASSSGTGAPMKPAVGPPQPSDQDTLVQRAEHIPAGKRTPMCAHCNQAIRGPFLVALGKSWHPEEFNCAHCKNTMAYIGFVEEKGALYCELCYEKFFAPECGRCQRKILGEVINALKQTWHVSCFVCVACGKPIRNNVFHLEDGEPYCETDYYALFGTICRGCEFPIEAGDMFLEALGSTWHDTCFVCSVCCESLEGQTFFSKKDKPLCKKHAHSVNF

Sequence of Protein kinase C beta type (Rattus norvegicus (Rat)), P68403-1 K371M (P68403 whole entry K371M): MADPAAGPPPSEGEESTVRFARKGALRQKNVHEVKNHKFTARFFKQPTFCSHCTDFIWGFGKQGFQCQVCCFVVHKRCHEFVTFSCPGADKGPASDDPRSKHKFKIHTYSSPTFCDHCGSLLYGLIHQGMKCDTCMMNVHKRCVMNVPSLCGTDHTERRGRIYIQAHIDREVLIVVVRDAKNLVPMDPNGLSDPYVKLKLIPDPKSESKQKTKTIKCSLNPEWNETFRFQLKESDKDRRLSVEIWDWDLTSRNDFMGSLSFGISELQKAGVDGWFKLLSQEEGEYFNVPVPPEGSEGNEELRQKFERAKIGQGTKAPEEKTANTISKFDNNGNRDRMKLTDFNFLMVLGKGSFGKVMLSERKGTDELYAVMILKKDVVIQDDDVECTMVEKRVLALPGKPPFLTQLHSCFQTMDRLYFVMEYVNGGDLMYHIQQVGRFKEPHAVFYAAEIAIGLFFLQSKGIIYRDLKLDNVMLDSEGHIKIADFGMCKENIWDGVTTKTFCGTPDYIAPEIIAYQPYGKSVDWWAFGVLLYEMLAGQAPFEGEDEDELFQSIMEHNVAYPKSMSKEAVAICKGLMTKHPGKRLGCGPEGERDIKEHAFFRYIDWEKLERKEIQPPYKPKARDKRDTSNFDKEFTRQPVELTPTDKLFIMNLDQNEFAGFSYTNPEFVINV

- effect of a mutation on the interaction: with no effect
Substance: Protein kinase C beta type (Rattus norvegicus (Rat)), P68403-1 K371M
